Earlier results as cited in paper PMC10382592.

Molecular target: Cys23 (UniProt position 23, FIKPTCPYCRR)

In the case of “Glutaredoxin-1 (GLRX, thioltransferase) (Homo sapiens (inferred from the title of ref 11, 'Thiotransferase in human red blood cells'; the sentence itself refers to mammalian GLRX))”, the pKa is listed as “approximately 3.5”.
